From the supplement of paper PMC10065799, “High-throughput profiling of sequence recognition by tyrosine kinases and SH2 domains using bacterial peptide display” (eLife, 2023)

What was measured:
AncSZ = experiment: phosphorylation enrichment, bacterial display (enrichment ratio); higher = better substrate or ligand; peptides without Tyr show the background
EPHB1 = EPHB1 (UniProt P54762); experiment: as above
EPHB2 = EPHB2 (UniProt P29323); experiment: as above
FGFR1 = FGFR1 (UniProt P11362); experiment: as above
FGFR3 = FGFR3 (UniProt P22607); experiment: as above
Fer (mouse) = experiment: as above
Fes = Fes (UniProt P07332); experiment: as above
Fyn = Fyn (UniProt P06241); experiment: as above
Hck = Hck (UniProt P08631); experiment: as above
Jak2 = Jak2 (UniProt O60674); experiment: as above
MERTK = MERTK (UniProt Q12866); experiment: as above
c-Abl (mouse) = experiment: as above
c-Src = experiment: as above
Grb2 SH2 = Grb2 SH2 (UniProt P62993); experiment: SH2 binding enrichment of the phosphorylated peptide, bacterial display (enrichment ratio); higher = better substrate or ligand; peptides without Tyr show the background
SHP2-C SH2 = experiment: as above
c-Src SH2 = experiment: as above
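Wherever SH2 binding enrichment of the phosphorylated peptide, bacterial display is given: peptide library displayed on the E. coli surface as eCPX fusions, selected cells deep-sequenced, score is each peptide's frequency after selection divided by its frequency in the input.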
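Wherever phosphorylation enrichment, bacterial display is given: 11-residue human phosphosite peptides and single-mutation variants displayed on the E. coli surface, counted by deep sequencing, each peptide's frequency after selection divided by its frequency in the unselected input library; frequency after pTyr selection over input frequency; kinase dosed for 20-30% of maximal phosphorylation in three min.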

Jak2, sequence (O60674 whole entry, looked up): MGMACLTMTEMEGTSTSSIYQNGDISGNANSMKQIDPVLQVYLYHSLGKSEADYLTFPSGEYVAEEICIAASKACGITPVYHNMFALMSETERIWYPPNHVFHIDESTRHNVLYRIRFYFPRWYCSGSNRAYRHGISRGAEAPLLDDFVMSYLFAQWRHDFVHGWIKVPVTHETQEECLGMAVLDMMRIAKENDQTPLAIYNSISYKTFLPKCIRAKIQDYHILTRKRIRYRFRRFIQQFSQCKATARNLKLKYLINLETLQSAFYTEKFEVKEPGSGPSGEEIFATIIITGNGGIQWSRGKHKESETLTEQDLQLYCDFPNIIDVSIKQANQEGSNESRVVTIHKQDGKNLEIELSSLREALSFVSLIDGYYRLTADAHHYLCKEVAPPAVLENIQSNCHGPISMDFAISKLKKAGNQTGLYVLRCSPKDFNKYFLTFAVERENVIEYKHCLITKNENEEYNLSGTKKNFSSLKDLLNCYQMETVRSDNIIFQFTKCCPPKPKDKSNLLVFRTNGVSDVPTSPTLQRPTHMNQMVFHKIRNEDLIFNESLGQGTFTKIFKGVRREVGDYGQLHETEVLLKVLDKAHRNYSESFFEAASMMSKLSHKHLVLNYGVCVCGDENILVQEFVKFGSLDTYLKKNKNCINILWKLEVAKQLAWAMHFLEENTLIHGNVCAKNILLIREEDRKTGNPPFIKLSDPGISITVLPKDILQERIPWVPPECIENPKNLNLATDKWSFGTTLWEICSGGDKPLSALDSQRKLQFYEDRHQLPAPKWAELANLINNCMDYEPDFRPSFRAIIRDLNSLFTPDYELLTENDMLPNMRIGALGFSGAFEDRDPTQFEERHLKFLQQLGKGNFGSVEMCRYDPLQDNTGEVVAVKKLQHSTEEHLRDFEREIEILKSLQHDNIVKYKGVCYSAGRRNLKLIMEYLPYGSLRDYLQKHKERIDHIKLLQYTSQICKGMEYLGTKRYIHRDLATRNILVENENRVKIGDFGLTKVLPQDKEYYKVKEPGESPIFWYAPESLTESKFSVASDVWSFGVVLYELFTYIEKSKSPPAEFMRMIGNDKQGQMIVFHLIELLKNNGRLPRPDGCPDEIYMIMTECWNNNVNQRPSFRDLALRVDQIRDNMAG
Hck, sequence (P08631 whole entry, looked up): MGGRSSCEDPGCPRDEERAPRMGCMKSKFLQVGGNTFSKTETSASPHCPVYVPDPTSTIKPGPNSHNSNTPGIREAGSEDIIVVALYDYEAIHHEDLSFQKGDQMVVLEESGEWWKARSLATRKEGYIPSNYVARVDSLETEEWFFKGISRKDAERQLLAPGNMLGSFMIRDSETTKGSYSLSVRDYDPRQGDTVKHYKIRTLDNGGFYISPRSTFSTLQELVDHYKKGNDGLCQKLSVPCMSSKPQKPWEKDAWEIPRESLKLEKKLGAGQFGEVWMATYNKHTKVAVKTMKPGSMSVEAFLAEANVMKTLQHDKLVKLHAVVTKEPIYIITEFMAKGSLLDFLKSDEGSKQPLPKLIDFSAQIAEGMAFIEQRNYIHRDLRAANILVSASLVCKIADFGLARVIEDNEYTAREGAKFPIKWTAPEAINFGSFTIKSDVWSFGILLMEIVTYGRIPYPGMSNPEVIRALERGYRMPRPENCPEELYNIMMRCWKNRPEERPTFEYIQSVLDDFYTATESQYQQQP
FGFR3, sequence (P22607 whole entry, looked up): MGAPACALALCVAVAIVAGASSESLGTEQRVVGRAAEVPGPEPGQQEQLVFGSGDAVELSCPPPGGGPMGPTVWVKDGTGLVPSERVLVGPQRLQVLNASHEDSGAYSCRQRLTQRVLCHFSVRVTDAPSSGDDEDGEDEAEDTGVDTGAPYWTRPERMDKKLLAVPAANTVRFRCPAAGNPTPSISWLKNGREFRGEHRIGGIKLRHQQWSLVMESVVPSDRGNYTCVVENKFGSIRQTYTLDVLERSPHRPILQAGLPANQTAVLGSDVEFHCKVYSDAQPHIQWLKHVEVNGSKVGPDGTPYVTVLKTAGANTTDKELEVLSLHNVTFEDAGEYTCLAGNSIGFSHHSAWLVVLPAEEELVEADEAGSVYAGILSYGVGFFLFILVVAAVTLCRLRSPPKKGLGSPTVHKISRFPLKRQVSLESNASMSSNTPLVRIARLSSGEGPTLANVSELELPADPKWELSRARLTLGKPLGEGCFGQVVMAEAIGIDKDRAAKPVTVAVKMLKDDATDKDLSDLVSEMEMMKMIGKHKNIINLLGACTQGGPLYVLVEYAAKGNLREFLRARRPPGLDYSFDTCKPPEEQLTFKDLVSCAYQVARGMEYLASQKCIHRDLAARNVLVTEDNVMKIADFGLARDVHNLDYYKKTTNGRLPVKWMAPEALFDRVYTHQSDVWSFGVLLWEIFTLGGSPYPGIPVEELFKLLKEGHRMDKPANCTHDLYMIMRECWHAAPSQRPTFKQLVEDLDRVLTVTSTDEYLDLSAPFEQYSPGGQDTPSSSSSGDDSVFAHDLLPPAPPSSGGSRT
EPHB1, sequence (P54762 whole entry, looked up): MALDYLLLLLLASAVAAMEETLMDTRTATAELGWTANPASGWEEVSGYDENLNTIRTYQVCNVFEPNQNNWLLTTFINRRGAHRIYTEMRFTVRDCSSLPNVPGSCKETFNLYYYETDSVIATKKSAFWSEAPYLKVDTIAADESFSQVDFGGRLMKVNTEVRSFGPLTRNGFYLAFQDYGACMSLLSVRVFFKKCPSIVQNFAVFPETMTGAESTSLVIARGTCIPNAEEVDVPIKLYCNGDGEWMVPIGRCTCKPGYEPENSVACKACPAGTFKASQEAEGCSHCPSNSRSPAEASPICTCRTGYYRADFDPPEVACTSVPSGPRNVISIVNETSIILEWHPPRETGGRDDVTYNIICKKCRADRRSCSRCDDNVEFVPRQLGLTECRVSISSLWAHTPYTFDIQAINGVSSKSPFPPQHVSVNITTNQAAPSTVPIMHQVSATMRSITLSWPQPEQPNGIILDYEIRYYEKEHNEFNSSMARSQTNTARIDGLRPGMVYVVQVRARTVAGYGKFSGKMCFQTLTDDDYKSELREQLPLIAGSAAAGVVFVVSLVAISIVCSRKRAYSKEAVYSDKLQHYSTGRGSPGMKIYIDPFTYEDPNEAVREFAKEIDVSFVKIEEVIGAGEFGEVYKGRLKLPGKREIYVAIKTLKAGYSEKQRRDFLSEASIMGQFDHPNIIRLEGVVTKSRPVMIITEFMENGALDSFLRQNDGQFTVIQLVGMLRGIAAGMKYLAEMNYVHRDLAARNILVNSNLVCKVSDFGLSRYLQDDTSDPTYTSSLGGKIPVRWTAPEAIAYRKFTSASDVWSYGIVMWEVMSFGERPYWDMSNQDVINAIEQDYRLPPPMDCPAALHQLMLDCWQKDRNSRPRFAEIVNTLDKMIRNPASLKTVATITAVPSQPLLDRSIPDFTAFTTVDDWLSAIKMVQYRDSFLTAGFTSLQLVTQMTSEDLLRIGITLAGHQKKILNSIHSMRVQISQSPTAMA
EPHB2, sequence (P29323 whole entry, looked up): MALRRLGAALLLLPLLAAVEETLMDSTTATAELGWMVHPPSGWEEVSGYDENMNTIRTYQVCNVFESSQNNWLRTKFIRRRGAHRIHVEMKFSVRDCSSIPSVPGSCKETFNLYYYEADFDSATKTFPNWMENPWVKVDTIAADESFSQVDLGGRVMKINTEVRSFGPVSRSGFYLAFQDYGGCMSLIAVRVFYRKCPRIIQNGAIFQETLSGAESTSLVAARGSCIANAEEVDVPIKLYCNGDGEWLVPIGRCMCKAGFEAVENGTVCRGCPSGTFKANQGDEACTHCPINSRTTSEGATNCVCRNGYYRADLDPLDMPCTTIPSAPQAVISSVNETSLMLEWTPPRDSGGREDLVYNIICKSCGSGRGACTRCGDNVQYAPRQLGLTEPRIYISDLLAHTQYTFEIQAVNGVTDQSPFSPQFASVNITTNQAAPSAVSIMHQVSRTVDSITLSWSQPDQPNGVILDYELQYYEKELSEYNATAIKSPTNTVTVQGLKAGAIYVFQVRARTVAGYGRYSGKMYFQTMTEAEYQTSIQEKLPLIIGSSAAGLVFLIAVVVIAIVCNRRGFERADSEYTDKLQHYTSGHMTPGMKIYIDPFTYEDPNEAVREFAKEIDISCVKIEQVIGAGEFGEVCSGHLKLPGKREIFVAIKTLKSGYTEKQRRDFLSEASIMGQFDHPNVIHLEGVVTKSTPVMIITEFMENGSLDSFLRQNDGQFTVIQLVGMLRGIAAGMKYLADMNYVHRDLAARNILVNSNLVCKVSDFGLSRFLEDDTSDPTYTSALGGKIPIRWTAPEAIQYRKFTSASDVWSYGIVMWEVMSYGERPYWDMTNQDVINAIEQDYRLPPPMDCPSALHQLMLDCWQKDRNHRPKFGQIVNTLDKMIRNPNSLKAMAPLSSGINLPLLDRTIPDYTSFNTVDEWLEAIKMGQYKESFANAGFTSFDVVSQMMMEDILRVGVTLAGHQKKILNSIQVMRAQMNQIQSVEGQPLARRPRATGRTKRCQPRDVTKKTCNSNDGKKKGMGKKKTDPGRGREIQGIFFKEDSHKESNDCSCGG
Fyn, sequence (P06241 whole entry, looked up): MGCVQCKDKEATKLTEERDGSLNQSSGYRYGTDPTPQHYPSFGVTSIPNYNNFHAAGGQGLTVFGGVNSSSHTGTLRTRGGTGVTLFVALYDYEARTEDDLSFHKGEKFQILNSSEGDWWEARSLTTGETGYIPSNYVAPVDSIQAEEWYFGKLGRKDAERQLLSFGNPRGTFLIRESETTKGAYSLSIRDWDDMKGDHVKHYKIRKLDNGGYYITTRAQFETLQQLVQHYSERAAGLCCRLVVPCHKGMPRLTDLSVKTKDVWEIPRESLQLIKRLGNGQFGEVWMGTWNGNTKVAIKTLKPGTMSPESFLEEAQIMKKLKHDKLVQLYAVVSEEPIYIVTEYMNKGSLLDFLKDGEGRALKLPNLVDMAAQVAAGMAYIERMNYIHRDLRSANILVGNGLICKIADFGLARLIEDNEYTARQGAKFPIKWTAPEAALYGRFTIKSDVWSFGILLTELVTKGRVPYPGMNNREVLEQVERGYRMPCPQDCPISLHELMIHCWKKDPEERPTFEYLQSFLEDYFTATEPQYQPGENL

SH2 binding enrichment (Grb2 SH2) | SH2 binding enrichment (SHP2-C SH2) | SH2 binding enrichment (c-Src SH2) | Sequence | phosphorylation enrichment (AncSZ) | phosphorylation enrichment (EPHB1) | phosphorylation enrichment (EPHB2) | phosphorylation enrichment (FGFR1) | phosphorylation enrichment (FGFR3) | phosphorylation enrichment (Fer (mouse)) | phosphorylation enrichment (Fes) | phosphorylation enrichment (Fyn) | phosphorylation enrichment (Hck) | phosphorylation enrichment (Jak2) | phosphorylation enrichment (MERTK) | phosphorylation enrichment (c-Abl (mouse)) | phosphorylation enrichment (c-Src)
0.887 | 1 | 0.494 | EPSVDCCVVKI [CAD_Y735_Y735C] | 1.07 | 0.449 | 0.499 | 0.432 | 0.586 | 0.411 | 1.18 | 0.336 | 0.371 | 1.01 | 0.376 | 0.816 | 0.369
0.827 | 0.738 | 0.533 | EPTPSYEVGQR [TSC2_Y1788_G1787S] | 0.726 | 0.443 | 0.426 | 0.462 | 0.581 | 0.408 | 0.895 | 0.427 | 0.486 | 0.686 | 0.383 | 0.627 | 0.428
0.966 | 0.617 | 1.3 | EQAERYDDMAA [YWHAG_Y20] | 1.22 | 0.508 | 0.51 | 0.547 | 0.737 | 0.501 | 1.03 | 0.537 | 0.501 | 0.87 | 0.407 | 0.653 | 0.426
0.996 | 0.729 | 0.606 | EQKKFYNATKK [SCN5A_Y1495_M1498T_YF] | 0.668 | 0.383 | 0.348 | 0.412 | 0.487 | 0.374 | 0.674 | 0.437 | 0.449 | 0.436 | 0.404 | 0.497 | 0.554
0.847 | 0.492 | 0.447 | ERDTVYSSSGV [NELL2_Y350_N347D] | 0.711 | 0.435 | 0.52 | 0.502 | 0.584 | 0.451 | 0.883 | 1.78 | 1.5 | 0.601 | 0.42 | 0.617 | 1.79
0.735 | 0.639 | 0.564 | EREYKYGAHKY [OAT_Y50_N54K] | 0.626 | 0.376 | 0.452 | 0.414 | 0.441 | 0.398 | 0.625 | 0.369 | 0.392 | 0.509 | 0.436 | 0.571 | 0.359
0.895 | 0.842 | 0.56 | ESFCLYPPVPQ [CYP4B1_Y377_R375C] | 0.874 | 0.805 | 0.595 | 0.539 | 0.647 | 0.582 | 1.12 | 0.459 | 0.484 | 0.906 | 0.447 | 0.739 | 0.477
0.838 | 0.877 | 1.05 | ETKRPYTVILI [SBDS_Y128] | 1.06 | 0.57 | 0.527 | 0.582 | 0.722 | 1.16 | 1.15 | 0.457 | 0.481 | 1.01 | 0.479 | 0.825 | 0.458
0.916 | 0.571 | 0.562 | EWKNNCPRLRE [OPA1_Y582_Y582C] | 0.9 | 0.492 | 0.582 | 0.508 | 0.654 | 0.433 | 1.13 | 0.395 | 0.472 | 0.81 | 0.415 | 0.592 | 0.411
9.47 | 0.872 | 6.88 | EYQLPYYNTVP [BMPR1A_Y457_M460T] | 4.46 | 0.966 | 1.19 | 7.09 | 5.15 | 1.94 | 1.05 | 1.42 | 1.93 | 5.82 | 2.31 | 2.54 | 5.66
0.771 | 0.426 | 0.711 | FEDTLYTVLHR [UNC13D_Y61_A59T_YF] | 2.45 | 9.72 | 4.95 | 1.18 | 1.5 | 5.83 | 1.38 | 5.65 | 7.58 | 1.56 | 7.86 | 1.99 | 6.22
1.99 | 1.71 | 1.29 | FFLGKYLQEVL [KLB_Y910_YF] | 0.963 | 0.486 | 0.474 | 0.436 | 0.498 | 0.441 | 1.19 | 0.342 | 0.42 | 0.911 | 0.391 | 0.665 | 0.469
1.07 | 0.75 | 0.588 | FGFPGYQSKHF [TIMP3_Y177_YF] | 0.534 | 0.422 | 0.398 | 0.47 | 0.499 | 0.406 | 0.651 | 0.521 | 0.496 | 0.5 | 0.405 | 0.574 | 0.401
1.26 | 0.836 | 0.936 | FGIAQYCCRMG [LRRK2_Y2023_YF] | 0.908 | 0.751 | 6.66 | 0.614 | 0.584 | 0.467 | 0.797 | 0.423 | 0.777 | 0.625 | 1.25 | 1.34 | 0.417

The remaining lines, values behind:

Sequence | SH2 binding enrichment (Grb2 SH2) | SH2 binding enrichment (SHP2-C SH2) | SH2 binding enrichment (c-Src SH2) | phosphorylation enrichment (AncSZ) | phosphorylation enrichment (EPHB1) | phosphorylation enrichment (EPHB2) | phosphorylation enrichment (FGFR1) | phosphorylation enrichment (FGFR3) | phosphorylation enrichment (Fer (mouse)) | phosphorylation enrichment (Fes) | phosphorylation enrichment (Fyn) | phosphorylation enrichment (Hck) | phosphorylation enrichment (Jak2) | phosphorylation enrichment (MERTK) | phosphorylation enrichment (c-Abl (mouse)) | phosphorylation enrichment (c-Src)
ENELTYYCCKK [CD59_Y86] | 0.953 | 0.82 | 0.483 | 1.57 | 0.505 | 0.97 | 2.21 | 1.22 | 0.779 | 0.955 | 1.72 | 2.47 | 1.77 | 1.08 | 1.26 | 2.74
EPYEVYRIVPE [IRF8_Y110_K108E] | 0.981 | 0.758 | 0.578 | 3.39 | 1.45 | 1.9 | 4.53 | 3.35 | 8.85 | 1.15 | 6.69 | 4.62 | 0.994 | 1.05 | 1.25 | 6.54
ERIELYELDKK [PMM2_Y145_F144L] | 0.803 | 0.635 | 0.487 | 1.18 | 0.664 | 0.589 | 0.481 | 0.673 | 0.506 | 1.1 | 0.586 | 0.574 | 0.887 | 0.568 | 0.641 | 0.615
ERNAHYRTPKI [PTK2B_Y699_R698H] | 0.707 | 0.611 | 0.521 | 0.586 | 0.583 | 0.561 | 0.524 | 0.473 | 0.424 | 0.495 | 0.367 | 0.332 | 0.559 | 0.37 | 0.615 | 0.387
ERNARYRTPKI [PTK2B_Y699] | 0.599 | 0.71 | 0.428 | 0.562 | 0.314 | 0.276 | 0.316 | 0.369 | 0.313 | 0.515 | 0.33 | 0.351 | 0.409 | 0.697 | 0.527 | 0.351
ERTIEYLEEVV [HADHA_Y239_A244V] | 0.836 | 0.594 | 0.451 | 1.18 | 0.559 | 0.615 | 0.55 | 0.712 | 0.523 | 1.17 | 0.466 | 0.498 | 1.07 | 0.386 | 0.739 | 0.487
ETAENYLGHTA [HSPA9_Y181] | 0.972 | 0.588 | 0.497 | 0.858 | 0.43 | 0.652 | 0.486 | 0.523 | 0.443 | 0.865 | 0.442 | 0.47 | 0.622 | 0.503 | 0.559 | 0.414
ETKKQYNSFTY [TMED3_Y85_D86N] | 1.1 | 0.704 | 1.03 | 0.617 | 0.436 | 0.434 | 0.496 | 0.455 | 0.434 | 0.753 | 0.592 | 0.423 | 0.54 | 0.463 | 0.435 | 0.491
ETLLYYGYRRS [POR_Y564_C566Y] | 0.756 | 1 | 0.474 | 1.21 | 1.21 | 1.06 | 1.3 | 1.18 | 0.766 | 0.806 | 9.27 | 14.6 | 5.24 | 6.93 | 9.52 | 10.7
ETPSEYLEIVR [TMEM130_Y412] | 0.605 | 0.573 | 0.443 | 1.17 | 0.848 | 0.608 | 0.645 | 0.77 | 0.493 | 1.01 | 0.555 | 0.652 | 1.01 | 0.452 | 0.652 | 0.49
ETRWKYHFEVV [GCNT3_Y267] | 0.712 | 0.678 | 0.437 | 1.42 | 0.701 | 0.706 | 0.505 | 1.04 | 0.57 | 1.52 | 0.439 | 0.563 | 1.35 | 0.418 | 0.979 | 0.364
EVVGRYSVHNA [MLH1_Y183] | 0.668 | 0.597 | 0.42 | 0.633 | 0.437 | 0.451 | 0.457 | 0.513 | 0.405 | 0.717 | 0.487 | 0.488 | 0.698 | 0.421 | 0.589 | 0.497
EWQQIYTFDSG [JUP_Y20_T19I_YF] | 1.23 | 0.92 | 0.555 | 1.78 | 1.21 | 0.906 | 7.82 | 5.97 | 4.03 | 1.58 | 11.9 | 7.35 | 1.21 | 9.37 | 1.06 | 9.4
EYRFIYMAVQH [PTPN11_Y515_Q510E] | 0.831 | 0.765 | 0.556 | 1.39 | 1.96 | 1.02 | 2.02 | 1.71 | 3.17 | 1.34 | 4.15 | 4.57 | 1.26 | 1.29 | 2.02 | 3.46
FDFKKYGKGLR [ZNF445_Y433_YF] | 1.19 | 0.751 | 1.14 | 0.531 | 0.426 | 0.436 | 0.575 | 0.498 | 0.304 | 0.671 | 0.318 | 0.45 | 0.525 | 0.389 | 0.392 | 0.484
FDNPIYQKTTE [LDLR_Y828_V827I] | 1.03 | 0.966 | 0.632 | 0.833 | 1.16 | 1.18 | 0.543 | 0.49 | 1.59 | 0.751 | 1.1 | 2.76 | 0.681 | 2.38 | 1.82 | 1.44
FGGLRYGFGVL [KRTAP20-2_Y13_YF] | 0.732 | 0.913 | 0.674 | 0.786 | 0.443 | 0.379 | 0.733 | 0.56 | 0.351 | 0.876 | 0.348 | 0.399 | 0.753 | 0.42 | 0.608 | 0.35
FGSSSSGGAGG [RPA2_Y14_Y14S_YF] | 0.854 | 0.622 | 0.358 | 0.499 | 0.287 | 0.31 | 0.409 | 0.455 | 0.417 | 0.638 | 0.419 | 0.312 | 0.669 | 0.394 | 0.511 | 0.458
FIAVGYVDDSQ [HLA-A_Y51_T55S] | 0.91 | 0.959 | 0.704 | 0.783 | 0.469 | 0.491 | 0.391 | 0.629 | 0.444 | 1.08 | 0.333 | 0.445 | 0.839 | 0.3 | 0.617 | 0.394
